{"source": "patent US20030108554A1", "about": "(published 2003)", "binders": {"B1": {"name": "Goodpasture antigen binding protein (GPBP) (enzyme, UniProt Q9Y5P4 1-624, looked up)", "chain": "MSDNQSWNSSGSEEDPETESGPPVERCGVLSKWTNYIHGWQDRWVVLKNNALSYYKSEDETEYGCRGSICLSKAVITPHDFDECRFDISVNDSVWYLRAQDPDHRQQWIDAIEQHKTESGYGSESSLRRHGSMVSLVSGASGYSATSTSSFKKGHSLREKLAEMETFRDILCRQVDTLQKYFDACADAVSKDELQRDKVVEDDEDDFPTTRSDGDFLHSTNGNKEKLFPHVTPKGINGIDFKGEAITFKATTAGILATLSHCIELMVKREDSWQKRLDKETEKKRRTEEAYKNAMTELKKKSHFGGPDYEEGPNSLINEEEFFDAVEAALDRQDKIEEQSQSEKVRLHWPTSLPSGDAFSSVGTHRFVQKPYSRSSSMSSIDLVSASDDVHRFSSQVEEMVQNHMTYSLQDVGGDANWQLVVEEGEMKVYRREVEENGIVLDPLKATHAVKGVTGHEVCNYFWNVDVRNDWETTIENFHVVETLADNAIIIYQTHKRVWPASQRDVLYLSVIRKIPALTENDPETWIVCNFSVDHDSAPLNNRCVRAKINVAMICQTLVSPPEGNQEISRDNILCKITYVANVNPGGWAPASVLRAVAKREYPKFLKRFTSYVQEKTAGKPILF", "notes": "Protein kinase; Fusion parts are not written as pieces"}}, "key": {"[1]": {"biological_target": "T1, GIP90 (GPBP interacting protein 90 kDa) (human, UniProt Q4L180 1-749, limits assumed)", "T1 construct": "Full length; tested as GAL4 domain fusion in yeast two-hybrid/three-hybrid; fusion parts are not written as pieces", "T1 sequence": "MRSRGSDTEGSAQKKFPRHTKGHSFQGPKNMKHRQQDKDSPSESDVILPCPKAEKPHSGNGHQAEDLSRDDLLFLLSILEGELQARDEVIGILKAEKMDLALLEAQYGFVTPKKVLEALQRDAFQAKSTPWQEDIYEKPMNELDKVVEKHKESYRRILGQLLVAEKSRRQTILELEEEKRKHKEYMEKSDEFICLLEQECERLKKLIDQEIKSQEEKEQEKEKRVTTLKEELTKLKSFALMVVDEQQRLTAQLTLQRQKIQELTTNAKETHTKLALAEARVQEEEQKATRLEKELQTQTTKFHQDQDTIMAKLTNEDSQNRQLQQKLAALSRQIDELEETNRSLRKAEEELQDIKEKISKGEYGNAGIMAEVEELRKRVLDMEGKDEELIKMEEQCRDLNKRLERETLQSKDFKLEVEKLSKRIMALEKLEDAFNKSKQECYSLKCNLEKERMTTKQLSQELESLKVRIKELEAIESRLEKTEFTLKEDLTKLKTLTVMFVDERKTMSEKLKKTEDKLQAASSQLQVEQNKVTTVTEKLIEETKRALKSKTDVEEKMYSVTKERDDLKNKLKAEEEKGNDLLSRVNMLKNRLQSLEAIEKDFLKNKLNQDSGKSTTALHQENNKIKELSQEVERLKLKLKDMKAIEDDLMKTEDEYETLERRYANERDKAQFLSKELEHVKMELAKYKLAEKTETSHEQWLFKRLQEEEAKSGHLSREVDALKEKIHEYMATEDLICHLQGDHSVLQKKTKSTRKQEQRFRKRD", "assay": "yeast two-hybrid, β-galactosidase colony lift", "method": "Deletion mutants were obtained using specific primers and PCR, followed by cloning of the resulting cDNAs in the pGBT9 and pGAD424 vectors. The assays were performed in SFY526 or HF7c Saccharomyces cerevisiae strains, with pGBT9 as GAL4 binding domain vector and pGAD424 as GAL4 activation domain vector, by the lift colony assay procedure. Briefly, the yeast cells were co-transformed with constructs of both binding domain and activation domain vectors, and the co-transformants were selected in medium deficient in both tryptophan and leucine. After five days of incubation at 30° C. the colonies were tested for the expression of β-galactosidase with X-Gal substrate (0.75 mg/ml). […] When the assays were performed with the HF7c strain, the interactions were assessed by the lift colony assay procedure and by growth in medium deficient in histidine, tryptophan and leucine. For yeast three-hybrid system, we used the pBRIDGE vector, which allows the conditional expression of a third protein apart from the usual GAL4 binding and activation domain-fusion proteins of the two-hybrid system. In this case, the expression of GPBP or I-20 or GIP90 was driven by Met25 promoter, active in absence of methionine. In these experiments, the transformed SFY526 cells were plated in medium deficient in tryptophan, leucine and methionine, and subjected to the colony lift assay after five days at 30° C. […]"}, "DOC1-related protein": {"biological_target": "T2, DOC1-related protein (human, UniProt Q4L180 241-1128)", "T2 sequence": "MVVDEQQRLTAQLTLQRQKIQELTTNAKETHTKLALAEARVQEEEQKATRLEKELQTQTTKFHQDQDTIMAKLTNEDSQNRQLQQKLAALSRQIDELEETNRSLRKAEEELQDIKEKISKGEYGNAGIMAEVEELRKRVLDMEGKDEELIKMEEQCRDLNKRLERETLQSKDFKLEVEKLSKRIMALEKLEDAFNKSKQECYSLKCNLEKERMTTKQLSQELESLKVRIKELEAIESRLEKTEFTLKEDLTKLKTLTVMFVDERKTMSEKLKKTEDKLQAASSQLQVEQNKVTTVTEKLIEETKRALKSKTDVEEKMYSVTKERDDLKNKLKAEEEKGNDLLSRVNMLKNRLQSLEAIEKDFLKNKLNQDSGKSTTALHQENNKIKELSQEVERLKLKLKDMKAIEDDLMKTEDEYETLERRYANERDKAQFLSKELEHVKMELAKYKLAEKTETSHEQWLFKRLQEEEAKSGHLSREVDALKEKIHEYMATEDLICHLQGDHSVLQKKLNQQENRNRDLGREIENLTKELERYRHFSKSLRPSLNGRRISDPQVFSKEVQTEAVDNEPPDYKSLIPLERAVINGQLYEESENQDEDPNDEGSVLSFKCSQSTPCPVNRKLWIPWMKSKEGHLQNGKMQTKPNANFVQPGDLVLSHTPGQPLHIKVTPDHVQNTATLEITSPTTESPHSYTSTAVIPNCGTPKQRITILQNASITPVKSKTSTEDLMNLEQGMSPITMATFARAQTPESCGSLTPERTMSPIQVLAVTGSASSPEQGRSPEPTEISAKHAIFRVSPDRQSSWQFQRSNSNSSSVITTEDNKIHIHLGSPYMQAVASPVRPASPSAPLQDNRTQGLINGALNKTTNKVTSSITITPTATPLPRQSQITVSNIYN", "assay": "yeast two-hybrid"}, "[2]": {"biological_target": "T3, GIP130c with deletion of the N terminal 240-residues (human, UniProt Q4L180 241-1128)", "T3 sequence": "T2 sequence", "assay": "yeast two-hybrid"}, "[3]": {"biological_target": "T4, GIP130b with deletion of the N terminal 240-residues (human, UniProt Q4L180 241-1128)", "T4 sequence": "T2 sequence", "assay": "yeast two-hybrid"}}}
{"binder": "B1", "values": [{"measurement": "binding result", "setting": "[1]", "result": "binds"}, {"measurement": "binding result", "setting": "DOC1-related protein", "result": "no binding"}, {"measurement": "binding result", "setting": "[2]", "result": "no binding"}, {"measurement": "binding result", "setting": "[3]", "result": "no binding"}]}
